Results: paper PMC2728291 (Journal of molecular biology, 2009)
Changes are numbered by the printed parent chain.

B1: BLIP Asp49Ser mutant (natural protein)
chain: AGVMTGAKFTQIQFGMTRQQVLDIAGAENCETGGSFGDSIHCRGHAAGSYYAYATFGFTSAAADAKVDSKSQEKLLAPSAPTLTLAKFNQVTVGMTRAQVLATVGQGSCTTWSEYYPAYPSTAGVTLSLSCFDVDGYSSTGFYRGSAHLWFTDGVLQGKRQWDLV
B2: BLIP Phe142Gly mutant (natural protein)
chain: B1 chain with S49D, F142G
B3: BLIP Trp112Arg mutant (natural protein)
chain: B1 chain with S49D, W112R
B4: BLIP Glu73Tyr mutant (natural protein)
chain: B1 chain with S49D, E73Y
B5: BLIP Glu31Gln mutant (natural protein)
chain: B1 chain with E31Q, S49D

target: TEM-1 β-lactamase (UniProt P62593 24-286); experiment: enzyme inhibition assay
Sequence (P62593 24-286): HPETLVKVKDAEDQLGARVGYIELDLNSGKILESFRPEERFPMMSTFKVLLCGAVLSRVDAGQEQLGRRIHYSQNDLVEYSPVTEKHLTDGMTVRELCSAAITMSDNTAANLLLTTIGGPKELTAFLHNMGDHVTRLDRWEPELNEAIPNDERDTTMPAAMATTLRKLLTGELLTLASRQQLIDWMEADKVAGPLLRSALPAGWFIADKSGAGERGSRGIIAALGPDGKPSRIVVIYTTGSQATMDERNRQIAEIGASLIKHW

Binder | Ki [nM]
B1 | 16
B2 | 12
B3 | 3.9
B4 | 3.7
B5 | 1.4
